# Experimental data as given in publication PMC10966353.
# Target: A/Puerto Rico/8/1934 hemagglutinin with an N-terminal sfGFP, GCN4-pII trimerization motif and Strep-tag II (influenza A virus A/Puerto Rico/8/1934)
# Assay: negative stain electron microscopy
substance,measurement,value
"A/Puerto Rico/8/1934 hemagglutinin with an N-terminal sfGFP, GCN4-pII trimerization motif and Strep-tag II",stoichiometry N,3
